Measured values reported in patent publication US20230226096A1 (Orna Therapeutics, Inc., priority 2020, published 2023).

B1: Pronghorn antelope pestivirus (nucleic acid, listed as Pestivirus sp.)
DNA: GTATACGCAGTTAGTTCATCCTGTGTATACAGATTGGAGACTCTAAAAACAACGATTCGGAATAGGGGCCCGCGGCGAAGACCGAAGACAGGCTAACCATGCCGTTAGTAGGGCTAGCACCAAAACGCGGGAACTAGACACTTAGGAGAGTGGTCTGGCTACTCTAAGAGGTGAGTACACCTTAACCGTCAAGGGTTCTACTCCTCAGTTGAGGACTAGAGATGCCCTGTGGACGGGGGCATGCCCAAGAGTTAGCTTAGCCGGGGCGGGGGTTGTTCCGGTGAAAGTAGCAATATTGACCACACTGCCTGATAGGGCGGAGCAGGCCCCCTAGGTAGTCTAGTATAAAATGTCTGCTGTACATGGCAC
B2: Simian pegivirus (nucleic acid, listed as Pegivirus sp.)
DNA: GGGGAATCTCACCCCCCGTCCGGTTCCGGAAGAATCGGAAACCGACACCCTGACCAATCATTCTTGATCATAGAGTGGATGTTAGTGAAAGCCAGACGAAAGCCGGCGGATGGGTGGTGACAGGGTTGGTAGGTCGTAAATCCCGGCCACCCTGGTACCCGGTATAAGTTGGGCGGAAGCTGACTGAAGCTCCGTGCTCTTTTCTGTGCGTTCTTGGTGCACGGTCCACAGGTGACGCCTATACCGGTGTGAATAATAGGCCGACTCGAGCGGAGTCGTTAAACTGAGAACCTCCATACGGATGGCAACTTGGCTTGCGTACGGGGACGCCGCTAAAGTCACAGTGGGTTAAGTCCGGCGGGTTGACAACCCCAGCAAGGCGAGGGGGTCCTATTGTTGGACTCTGCCAGTTCCCGGTGGAGGTAGGCATGGGGTGGCCCAGCTCCGCGGCGCGCTACAGCCGGGGTAGCCCAAAATCCGAAAGGTGAGGGCGGGCCACATGTCCGAAATTTAGTCAAGC
B3: Pegivirus K (nucleic acid)
DNA: AGAATGGTGTGATCCGTCGCCGCTCCAGCGGAAAGCGGGCGGGATCTAGTGGTTAGGGTTGTTCGCGTAAATCCCACACTAGTGGTACGCTCGTATAACGTGGGAGCAGCCGGTGGGGTCGACCCCCCACCTGGCGGCTGCTGAGCACCGGACGAAGCGCGGGGGGTGAACGCTAACCCGCGGCCCGGGCTGCCAACGTTAGGCACGTCTTGGCTGGAAGACGTTAAACACAGGGCCCCCCCTCAACCCTGATCCGAGGCCAGAGACCAAGGTACGCCGCCCTTTTAAAGGCGTTACTCGTCCAATAGGATCTCTCCGGCGGGTTGTCAAACCTTGCTGGCCCTGGTGATGGTTACGGGAGGGGGTGGGGCGGGGAGTAGAAGCCCCGCCCGGCATGGGGGTACCAAGCTCGGCACGCCCAGCACGCGTGGCGTAGGGGAAAAATCCTTCGGGTGACCCCTGGTACCATAAAGTAATTAACATGAGCATGCCGCTAGGGTGTGCTTTTTCTTCCTTCCTTGGGAAGGCGGTGGCACC
modifications: Pegivirus K
B4: Human pegivirus isolate JD2B1I (nucleic acid, listed as Pegivirus sp.)
DNA: TCAGGGTTGGTAGGTCGTAAATCCCGGTCACCTTGGTAGCCACTATAGGTGGGTCTTAAGAGAAGGTTAAGATTCCTCTTGTGCCTGCGGCGAGACCGCGCACGGTCCACAGGTGTTGGCCCTACCGGTGGGAATAAGGGCCCGACGTCAGGCTCGTCGTTAAACCGAGCCCGTCACCCACCTGGGCAAACGACGCCCACGTACGGTCCACGTCGCCCTTCA
B5: Pestivirus giraffe-1 (nucleic acid, listed as Pestivirus sp.)
DNA: GTATACGAGTTTAGCTCAATCCTCGTATACAATATTGGGCGTCACCAAATATAGATTTGGCATAGGCAACACCCCGATGCGAAGGCCGAAAAGGGCTAACCATGCCCTTAGTAGGACTAGCAAAAAATCGGGGACTAGCCCAGGTGGTGAGCTTCCTGGATGACCGAAGCCCTGAGTACAGGGCAGTCGTCAACAGTTCAACACGCAGAATAGGTTTGCGTCTTGATATGCTGTGTGGACGAGGGCATGCCCACGGTACATCTTAACCTATCCGGGGGTCGGATAGGCGAAAGTCCAGTATTGGACTGGGAGTACAGCCTGATAGGGTGTTGCAGAGACCCATCTGATAGGCTAGTATAAAAAACTCTGCTGTACATGGCAC
B6: Porcine pestivirus isolate Bungowannah (nucleic acid, listed as Pestivirus sp.)
DNA: TACGCGGGGTATAACGACAGTAGTTCAAGTGTCGTTATGCATCATTGGCCATAACAAATTATCTAATTTGGAATAGGGACCTGCGACCTGTACGAAGGCCGAGCGTCGGTAGCCATTCCGACTAGTAGGACTAGTACAAATAGGTCAACTGGTTGAGCAGGTGAGTGTGCTGCAGCGGCTAAGCGGTGAGTACACCGTATTCGTCAACAGGTGCTACTGGAAAGGATCACCCACTAGCGATGCCTGTGTGGACGAGGACATGTCCAAGCCAATGTTATCAGTAGCGGGGGTCGTTACTGAGAAAGCTGCCCAGAATGGGTAGTTGCACATACAGTCTGATAGGATGCCGGCGGATGCCCTGTATTTTGACCAGTATAAATATTATCCGTTGTAAAGCAT
B7: Sakobuvirus A FFUP1 (1x mut) (nucleic acid)
DNA: TCACGCGCTTTTCCGGTGGTCACCCACCGTTAGGGAGCGCCAGCGTTCGCGCTTCCGCTACCAGGTGACACACTCCTTTCCCCTCCCCCATTCCCGTTCCCATCCTCTGGACTGGTTTCTCCTCACGATTGACCAGCAGCTGGGAGCTGTTACCAGACGTTGGACAGTAAGTCCCGGATGCACTATAGGGCTGGTGGCTAGTGCTTGGTAAGCACTCAACGCCATACCTAATGTGTACCTCGGCTTGCCCTCCTGGTCGTGGTGACCGGCTGTTTCTCTTCCCTTGGCTCCAGACGGGCTGGTGTCCTACCACCACCGTTGCATGCAGACCTCCCCCTGCGCACTCGAACGCCCTGTCCCAGCAGGGTTAGTATGTGCTGTGCAGATCTGCATGTGACACCCCATCCACTGGTAGAGCAGGAAGTTGCCCTAGCTAACGCGGCAAGTATTACTTTCCGCTACACGTCCTTGAGATTCCTCGGACCTCTGGAACTAGGGTGACTGTGGGCTTGGGAAAACCCACCTTGGTCCTGTACTGCCTGATAGGGTCGCGGCTGGCCGACCAGTGGATGTAGCCAGTTGTTTTGGGAT
B8: Human pegivirus isolate JD2B8C (nucleic acid, listed as Pegivirus sp.)
DNA: TGGTCACCTTGGTAGCCACTATAGGTGGGTCTTAAGAGAAGGTTAAGATTCCTCTTGTGCCTGCGGCGAGACCGCGCACGGTCCACAGGTGTTGGCCCTACCGGTGTGAATAAGGGCCCGACGTCAGGCTCGTCGTTAAACCGAGCCCATTTCCCGCCTGGGCAAACGACGCCCACGTACGGTCCACGTCGCCCTTTTAATGTCTCTCTTGACCAATAGGTTCATCCGGCGAGTTGACAAGGACCAGTGGGGGCCGGGGGTCACAGGGATGGACCCTGGGCCCTGCCCTTCCCGGCGGGGTGGGGAAAGCATGGGGCCACCCAGCTCCGCGGCGGCCTGCAGCCGGGGTAGCCCAAGAACCTTCGGGTGAGGGCGGGTGGCATTTTTCTTCCTATACCGATC
B9: Theiler's disease-associated virus (nucleic acid)
DNA: TGATACCGTGTCCCGGTACGACCTCGCGCGTCCCCAAGCTCGCCCTGAGGGGGGAGCGTAAGGGCGCGTAGTGGGGTAGCCCCCCAAACCGAGCCACCCTAGTGAGTGACTTTAGAATGGTTAGGGAGACTACCGCCTTCGCTGTTTGGGGACCTAATGATCCGCGTGCCAGGGTTCTTCGGGTAAATCCCGGCGCGGTGTTTTGGGTTCAGGGCAGTAGGGGCAGACGGGCCAGCAGTCGCTGGTTCCTGGTACCACCACCCTATCCGGACGACCTCCCTCACGAAAGGTCGCCACGGTCTGTGGCTCGACGACGCCTATAATTCAGTCCGAGGGGCGCAGCCCTCGTTAAACTTAGGCAAGGTTCCTCGCCATTGATTTGGCCAGGGGTTTAAGTGAACGCCGCCCTTTTAATGTTTAATAGGGTTCTTTCCCGGCGGGTTGACAAACACTTCCCTGGGCTCTTCGTTGGCCTCGGTTCCTTGATGCTTCGGCACCCATGAGCGCACAGGGGGGGGACCCTGCGACAGTCCGCCAAGAGGAAAATCCTTCGGGTGACCTCGTGCGCAACCCAATCCCTTCTTCTTCCACATGGCGTGTCTGTGGTGCATGCTGTG
B10: Pegivirus I (nucleic acid)
DNA: AGAATGGTCTAAGTGGTTGCCACCGTGGTCCGAAGGGGAGGAGGACCTACGCTGCCAGGGTTGGCAGGTCGTAAATCCCGGGTGTAGGAGATCCCTCCTTGTTAGGACTGCTGGTAGCTGGGGGGTCGGTGACCCCCTGGGCAACCGCCAAACCCGGACGACCGGGTGGCGGCTCCATGTTGGCACGGTCCACAGGTGTGAACCCTACCGGTGTGAATAAGGGTTGGTGGTTGCGGTCCACCTTAAACGTAGTATGCATTGGGCTTGGTAAAACACCGCTCGTAGTACGGAACGCCGCCTTTAAAGACACAGTAGGCGTAGCCGGCGGGTTGACAATCCATACGGGGGGTGGGGTGTGGTCATGGATCTGTCCACACCACCTTCATGCGGCCCTCTAAGCAAGCCATACCGGGGGGAGGCGCGCGGCACCGCACTGCCGGGCAAGGGGAAGAACCTTCGGGTGACCCCCCCCCAACCACCGTCCGATCAATGCTAATGTTGCGTTTAGGCGTGACACCGGCACA
modifications: Pegivirus I
B11: Rodent pegivirus (nucleic acid, listed as Pegivirus sp.)
DNA: GGACTTCGGTCCCCCTGTTACTCTGCGAGCCACCGCAGAGCCAGGGTTGGTACGCCCGAGGTGTTAGACCCCGGCCGAAAGCTCCTAACCATGGGGTTAGTAGGACGTGGTAAATGCCACTGAGGGGTTGGAGAGCTGGTAGAGCGAGTAAGTCGGCGTAAGGCCCGAGTACGGGCCTCCCAGCCCGGGTCAGCCTAAACCTGGCTGTGATACCCGGTGCATGGAGGGCGTGTCCCAACGCTCGATCGCTGTAGGGTGGGTCCCTGCAGTTGGGTGTGGCTACCCTGCTCGTACTGCTTGATAGAGTCCCGGCGGACGGACCAGCTCTCGTCAGTCCGTGGAGTTGCAC
B12: Porcine pestivirus 1 (nucleic acid, listed as Pestivirus sp.)
DNA: GCAGATATCGGTGGTGGACCTGGGGGTTGGGCTCACCGTGCCCCTTCATGGGGTAGACCTCACTGCTTGATAGAGTGCCGGCGGATGCCTCAGGTAAGAGTATAAAATCCGTTGTTCACTAAC
modifications: chemistry not fully specified; the letters are possibly those of the target site

Tested on: HEK293 cells
Format: cell-based, human
Conditions: luminescence from secreted Gluc in supernatant 24 hours after transfection of HEK293 cells; circular RNA encoding Gluc with the named IRES (UTR truncated to 675 nt)

Row | Molecule | Expression
1 | B1 | 1.35E+06
2 | B2 | 8.56E+04
3 | B3 | 8.07E+04
4 | B4 | 6.85E+05
5 | B5 | 4.72E+05
6 | B6 | 1.10E+07
7 | B7 | 8.82E+06
8 | B8 | 5.36E+05
9 | B9 | 7.84E+04
10 | B10 | 8.02E+04
11 | B11 | 1.79E+05
12 | B12 | 9.46E+04
